Assay results published in PMC4141763, “Reciprocal Activating Crosstalk between c-Met and Caveolin 1 Promotes Invasive Phenotype in Hepatocellular Carcinoma” (PLoS ONE, 2014).

Target: T1, c-Met, the receptor for Hepatocyte Growth Factor (HGF) (human (endogenous in SNU-449 and …, UniProt P08581 25-1390))
T1 construct: precipitated with agarose-conjugated anti-c-Met antibody sc-161 AC; Endogenous receptor in a lysate; the co-IP blot detects total c-Met; also called c-Met Tyrosine Kinase; source: endogenous, Mahlavu whole cell lysate
T1 sequence (P08581 25-1390): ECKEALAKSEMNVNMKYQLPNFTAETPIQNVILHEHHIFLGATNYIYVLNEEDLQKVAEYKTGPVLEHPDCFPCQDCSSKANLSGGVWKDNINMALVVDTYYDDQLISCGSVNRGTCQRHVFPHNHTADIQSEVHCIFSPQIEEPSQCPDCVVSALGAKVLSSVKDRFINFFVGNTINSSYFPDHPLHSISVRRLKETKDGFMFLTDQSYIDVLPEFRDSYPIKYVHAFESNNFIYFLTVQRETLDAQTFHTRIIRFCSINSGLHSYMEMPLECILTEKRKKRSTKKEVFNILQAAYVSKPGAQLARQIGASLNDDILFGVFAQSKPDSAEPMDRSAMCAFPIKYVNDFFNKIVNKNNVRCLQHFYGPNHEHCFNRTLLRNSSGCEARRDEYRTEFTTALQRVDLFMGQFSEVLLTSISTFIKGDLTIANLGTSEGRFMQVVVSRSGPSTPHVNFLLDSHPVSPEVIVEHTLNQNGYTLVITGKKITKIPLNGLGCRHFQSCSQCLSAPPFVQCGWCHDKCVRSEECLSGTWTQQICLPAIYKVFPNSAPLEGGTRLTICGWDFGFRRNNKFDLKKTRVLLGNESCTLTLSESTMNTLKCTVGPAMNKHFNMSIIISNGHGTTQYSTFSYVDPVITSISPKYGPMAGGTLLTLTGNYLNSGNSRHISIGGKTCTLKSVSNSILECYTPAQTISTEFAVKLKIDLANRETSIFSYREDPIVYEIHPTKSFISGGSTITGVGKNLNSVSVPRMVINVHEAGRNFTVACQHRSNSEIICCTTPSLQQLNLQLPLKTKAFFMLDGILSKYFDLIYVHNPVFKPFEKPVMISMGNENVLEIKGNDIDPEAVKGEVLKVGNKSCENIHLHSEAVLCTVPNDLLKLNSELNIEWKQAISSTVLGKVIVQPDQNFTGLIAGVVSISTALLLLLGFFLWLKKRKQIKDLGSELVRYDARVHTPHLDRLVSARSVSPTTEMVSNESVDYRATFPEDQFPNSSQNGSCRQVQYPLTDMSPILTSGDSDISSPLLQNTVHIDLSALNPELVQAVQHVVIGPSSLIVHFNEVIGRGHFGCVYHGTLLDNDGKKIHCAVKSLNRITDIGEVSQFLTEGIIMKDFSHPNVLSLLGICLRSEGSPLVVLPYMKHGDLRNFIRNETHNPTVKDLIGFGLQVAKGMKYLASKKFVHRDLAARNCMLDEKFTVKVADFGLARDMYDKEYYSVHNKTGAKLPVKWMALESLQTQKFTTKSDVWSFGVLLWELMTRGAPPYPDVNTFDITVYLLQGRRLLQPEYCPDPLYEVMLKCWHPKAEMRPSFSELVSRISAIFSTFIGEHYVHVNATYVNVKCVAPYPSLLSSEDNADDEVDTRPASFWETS
Experiment: co-IP; SNU-449 whole cell lysates (modified NP-40 buffer) precipitated with agarose-conjugated anti-c-Met antibody (sc-161 AC), blotted for CAV1 and c-Met; serum-starved cells untreated or exposed to HGF (40 ng/mL) for 15, 30 and 60 min; IgG as IP control
Settings: partners not purified

fold increase in the amount co-immunoprecipitated upon HGF stimulation, against no HGF: ≥ 3 fold
B1: Caveolin 1 (CAV1) (natural protein, UniProt Q03135 1-178, looked up)
chain: MSGGKYVDSEGHLYTVPIREQGNIYKPNNKAMADELSEKQVYDAHTKEIDLVNRDPKHLNDDVVKIDFEDVIAEPEGTHSFDGIWKASFTTFTVTKYWFYRLLSALFGIPMALIWGIYFAILSFLHIWAVVPCIKSFLIEIQCISRVYSIYVHTVCDPLFEAVGKIFSNVRINLQKEI
notes: detected by Western blot with an antibody to CAV1; Endogenous protein; the co-IP blot detects total CAV1; source: endogenous, Mahlavu whole cell lysate
